Source: patent US20040116336A1, “Peptide derivatives” (priority 2002, published 2004)

How the values were obtained:
[1] = target: APJ (orphan G protein-coupled receptor protein); assay: radioligand competition, 125I-labelled compound of Ref. Ex. 1 (100 pM), CHO-A10 membrane fraction
[2] = target: APJ (orphan G protein-coupled receptor protein); assay: radioligand competition, compound of Ref. Ex. 2 as labelled ligand, CHO-A10 membrane fraction
[3] = target: APJ (orphan G protein-coupled receptor protein); assay: cell-based or functional assay

Sequence of APJ (orphan G protein-coupled receptor protein) (P35414 whole entry): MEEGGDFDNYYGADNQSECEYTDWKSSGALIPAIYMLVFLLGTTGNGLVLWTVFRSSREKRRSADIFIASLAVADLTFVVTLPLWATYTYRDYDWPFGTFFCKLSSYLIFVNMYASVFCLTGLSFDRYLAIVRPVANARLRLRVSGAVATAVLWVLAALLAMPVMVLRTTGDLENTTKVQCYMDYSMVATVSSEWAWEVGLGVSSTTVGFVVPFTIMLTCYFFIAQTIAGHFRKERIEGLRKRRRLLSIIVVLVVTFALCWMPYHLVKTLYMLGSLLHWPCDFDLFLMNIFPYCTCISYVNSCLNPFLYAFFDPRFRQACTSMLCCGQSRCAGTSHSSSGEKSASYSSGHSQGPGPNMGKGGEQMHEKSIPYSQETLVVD

Row | Substance | IC50 [1] | IC50 [2] | EC50, inhibition of forskolin-stimulated cAMP production (CHO-A10 clone 6 cells) [3]
1 | Arg-Arg-Gln-Arg-Pro-Arg-Leu-Ser-Ala-Arg-Gly-Pro-Met-Pro-Phe(Cl)-NH2 (peptide) | 320 pM | 180 pM | 320 pM
2 | Arg-Pro-Arg-Leu-Ser-Ala-Arg-Gly-Gly-Met-Pro-Phe(Cl) (peptide) |  | 290 pM | 190 pM
3 | Arg-Pro-Arg-Leu-Ser-Dap-Arg-Gly-Pro-Cha-Pro-Phe(Cl) (peptide) | 520 pM | 260 pM | 520 pM
4 | Arg-Pro-Arg-Leu-Ser-His-Lys-Gly-Pro-Cha-Pro-Phe(Cl) (peptide) | 1400 pM |  | 410 pM
5 | Arg-Pro-Arg-Leu-Ser-His-Lys-Gly-Pro-Met-Phe(Cl) (peptide) |  | 170 pM | 160 pM
6 | pGlu-Arg-Pro-Arg-Leu-Ser-His-Lys-Gly-Pro-Met-Phe(Cl) (peptide) |  | 480 pM | 430 pM
7 | pGlu-Arg-Pro-Arg-Leu-Ser-His-Lys-Gly-Pro-Met-Pro-Nal(2) (peptide) |  |  | 400 pM

Other lines, results leading:

Row | IC50 [1] | IC50 [2] | EC50, inhibition of forskolin-stimulated cAMP production (CHO-A10 clone 6 cells) [3] | Substance
8 | 200 pM | 100 pM |  | Arg-Arg-Gln-Arg-Pro-Arg-Leu-Ser-Ala-Arg-Gly-Pro-Met-Pro-Phe(Cl) (peptide)
9 | 8000 pM | 66 pM | 380 pM | Arg-Pro-Arg-Leu-Phe-His-Lys-Gly-Pro-Met-Pro-Phe(Cl) (peptide)
10 | 270 pM | 90 pM | 270 pM | Arg-Pro-Arg-Leu-Ser-Ala-Arg-Gly-N-MeAla-Met-Pro-Phe(Cl) (peptide)
11 | 370 pM | 64 pM | 370 pM | Arg-Pro-Arg-Leu-Ser-Ala-Arg-Gly-Pro-Ala-Pro-Phe(Cl) (peptide)
12 | 910 pM | 36 pM | 320 pM | Arg-Pro-Arg-Leu-Ser-Ala-Arg-Gly-Pro-Met-Pro-Phe(Cl) (peptide)
13 | 690 pM | 110 pM | 690 pM | Arg-Pro-Arg-Leu-Ser-Dap(Ac)-Arg-Gly-Pro-Cha-Pro-Phe(Cl) (peptide)
